EC50 and IC50 data for ten molecules are collected here from PMC7176092, “Development of the first in vivo GPR17 ligand through an iterative drug discovery pipeline: A novel disease-modifying strategy for multiple sclerosis” (PLoS ONE, 2020).

Assay [1] has as its target T1, CXCR5 (Homo sapiens, UniProt P32302).
T1 sequence (P32302 1-372): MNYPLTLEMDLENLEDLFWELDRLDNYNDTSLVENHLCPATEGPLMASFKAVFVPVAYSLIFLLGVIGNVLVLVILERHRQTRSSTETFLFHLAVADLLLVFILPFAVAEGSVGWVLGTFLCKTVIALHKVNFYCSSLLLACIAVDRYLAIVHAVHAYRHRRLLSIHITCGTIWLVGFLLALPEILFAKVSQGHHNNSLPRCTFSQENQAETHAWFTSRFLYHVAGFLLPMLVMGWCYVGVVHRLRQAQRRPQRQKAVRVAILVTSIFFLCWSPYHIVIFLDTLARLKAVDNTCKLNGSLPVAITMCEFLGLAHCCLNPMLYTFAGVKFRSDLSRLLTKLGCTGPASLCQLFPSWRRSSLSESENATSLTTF
Nature of the assay: Cellular functional assay CXCR5. The conditions noted are these: reference agonist.

For assay [2], the target named is T2, CXCR3 (Homo sapiens, UniProt P49682).
T2 sequence (P49682 1-368): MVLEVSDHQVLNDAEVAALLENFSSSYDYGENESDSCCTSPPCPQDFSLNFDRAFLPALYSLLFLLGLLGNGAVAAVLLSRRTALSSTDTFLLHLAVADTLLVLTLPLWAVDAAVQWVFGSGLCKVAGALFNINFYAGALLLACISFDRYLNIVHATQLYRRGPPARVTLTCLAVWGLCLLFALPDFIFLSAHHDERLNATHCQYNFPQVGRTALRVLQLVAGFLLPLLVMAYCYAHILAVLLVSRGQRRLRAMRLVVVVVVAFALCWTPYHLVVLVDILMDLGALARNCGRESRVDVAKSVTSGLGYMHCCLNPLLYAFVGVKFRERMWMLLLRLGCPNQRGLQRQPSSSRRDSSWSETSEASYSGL
Put plainly: Cellular functional assay CXCR3. The settings on record: reference agonist.

Assay [3] addresses T3, ADR1A (Homo sapiens, UniProt P35348).
T3 construct: Eurofins Cerep (external service)
T3 sequence (P35348 1-466): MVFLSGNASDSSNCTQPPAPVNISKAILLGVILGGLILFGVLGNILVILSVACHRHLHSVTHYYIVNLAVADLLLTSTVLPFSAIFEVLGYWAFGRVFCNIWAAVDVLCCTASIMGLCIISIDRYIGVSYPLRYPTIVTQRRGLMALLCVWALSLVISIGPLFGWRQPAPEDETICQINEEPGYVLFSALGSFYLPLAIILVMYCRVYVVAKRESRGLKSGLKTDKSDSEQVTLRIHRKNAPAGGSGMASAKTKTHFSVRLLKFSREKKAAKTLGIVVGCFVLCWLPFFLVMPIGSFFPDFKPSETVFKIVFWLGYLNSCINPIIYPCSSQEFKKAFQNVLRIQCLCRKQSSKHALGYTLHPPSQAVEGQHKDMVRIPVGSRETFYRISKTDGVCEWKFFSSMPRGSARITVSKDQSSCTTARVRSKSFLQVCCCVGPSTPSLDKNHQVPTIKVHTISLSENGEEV
Put plainly: Binding assay ADR1A. The settings on record: reference compound.

Assay [4] addresses T4, CXCR1 (Homo sapiens, UniProt P25024).
T4 sequence (P25024 1-350): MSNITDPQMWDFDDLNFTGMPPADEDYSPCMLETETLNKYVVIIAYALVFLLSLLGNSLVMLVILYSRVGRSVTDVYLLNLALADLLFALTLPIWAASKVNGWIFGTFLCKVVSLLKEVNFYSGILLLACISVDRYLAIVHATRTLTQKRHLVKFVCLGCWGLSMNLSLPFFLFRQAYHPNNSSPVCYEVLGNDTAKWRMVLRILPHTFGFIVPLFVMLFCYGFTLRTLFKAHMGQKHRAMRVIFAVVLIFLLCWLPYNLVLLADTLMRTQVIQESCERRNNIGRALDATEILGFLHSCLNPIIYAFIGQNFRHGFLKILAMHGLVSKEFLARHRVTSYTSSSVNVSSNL
Nature of the assay: Cellular functional assay CXCR1. The conditions noted are these: reference agonist.

For assay [5], the target named is CCR8 (Homo sapiens, UniProt P51685). Put plainly: Cellular functional assay CCR8. The conditions noted are these: reference agonist.
Sequence of CCR8 (P51685 whole entry): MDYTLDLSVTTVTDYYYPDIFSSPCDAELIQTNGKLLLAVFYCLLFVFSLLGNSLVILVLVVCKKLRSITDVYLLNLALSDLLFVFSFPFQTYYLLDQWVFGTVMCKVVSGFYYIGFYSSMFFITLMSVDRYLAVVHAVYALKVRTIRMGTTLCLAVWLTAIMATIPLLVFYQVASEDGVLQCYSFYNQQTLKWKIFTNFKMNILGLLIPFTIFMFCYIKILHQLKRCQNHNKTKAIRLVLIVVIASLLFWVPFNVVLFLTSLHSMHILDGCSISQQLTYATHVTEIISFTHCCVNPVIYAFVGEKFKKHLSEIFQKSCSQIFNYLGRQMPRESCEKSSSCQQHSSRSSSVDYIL
The target of assay [6] is T5, CCR4 (Homo sapiens, UniProt P51679).
T5 sequence (P51679 1-360): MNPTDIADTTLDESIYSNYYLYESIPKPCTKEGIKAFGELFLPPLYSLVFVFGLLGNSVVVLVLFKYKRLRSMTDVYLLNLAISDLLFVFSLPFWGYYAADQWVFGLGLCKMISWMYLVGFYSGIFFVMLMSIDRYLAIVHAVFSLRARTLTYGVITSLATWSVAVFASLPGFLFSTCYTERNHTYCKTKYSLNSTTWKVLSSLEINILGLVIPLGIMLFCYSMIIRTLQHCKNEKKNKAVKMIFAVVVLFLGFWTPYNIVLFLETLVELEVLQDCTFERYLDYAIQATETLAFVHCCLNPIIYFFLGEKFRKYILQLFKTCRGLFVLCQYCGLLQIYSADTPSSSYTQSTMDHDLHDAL
Put plainly: Cellular functional assay CCR4. The conditions noted are these: reference agonist.

In assay [7] the target is T6, CCR10 (Homo sapiens, UniProt P46092).
T6 sequence (P46092 1-362): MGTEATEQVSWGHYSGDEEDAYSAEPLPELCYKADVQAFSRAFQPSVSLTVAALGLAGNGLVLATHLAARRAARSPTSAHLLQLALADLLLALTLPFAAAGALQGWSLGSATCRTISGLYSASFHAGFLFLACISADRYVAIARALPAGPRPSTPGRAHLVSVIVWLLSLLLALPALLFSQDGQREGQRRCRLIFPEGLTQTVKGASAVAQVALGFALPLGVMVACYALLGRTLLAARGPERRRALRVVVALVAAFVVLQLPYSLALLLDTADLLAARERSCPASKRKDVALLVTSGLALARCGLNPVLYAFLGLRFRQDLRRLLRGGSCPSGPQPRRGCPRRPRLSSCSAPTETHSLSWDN
Nature of the assay: Cellular functional assay CCR10. The settings on record: reference agonist.

The target of assay [8] is T7, CCR9 (Homo sapiens, UniProt P51686).
T7 sequence (P51686 1-369): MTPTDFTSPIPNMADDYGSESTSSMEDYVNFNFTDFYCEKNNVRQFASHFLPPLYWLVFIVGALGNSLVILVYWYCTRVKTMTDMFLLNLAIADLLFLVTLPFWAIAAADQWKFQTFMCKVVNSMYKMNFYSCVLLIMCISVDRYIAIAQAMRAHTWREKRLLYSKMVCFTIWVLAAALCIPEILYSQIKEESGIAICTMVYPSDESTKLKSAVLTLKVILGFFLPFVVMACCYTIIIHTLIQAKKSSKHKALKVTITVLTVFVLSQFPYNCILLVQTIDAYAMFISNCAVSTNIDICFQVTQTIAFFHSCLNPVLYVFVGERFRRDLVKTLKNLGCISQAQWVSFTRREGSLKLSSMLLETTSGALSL
Put plainly: Cellular functional assay CCR9. The settings on record: reference agonist.

Assay [9] deals with CXCR6 (Homo sapiens, UniProt O00574). Nature of the assay: Cellular functional assay CXCR6. The settings on record: reference agonist.
Sequence of CXCR6 (O00574 whole entry): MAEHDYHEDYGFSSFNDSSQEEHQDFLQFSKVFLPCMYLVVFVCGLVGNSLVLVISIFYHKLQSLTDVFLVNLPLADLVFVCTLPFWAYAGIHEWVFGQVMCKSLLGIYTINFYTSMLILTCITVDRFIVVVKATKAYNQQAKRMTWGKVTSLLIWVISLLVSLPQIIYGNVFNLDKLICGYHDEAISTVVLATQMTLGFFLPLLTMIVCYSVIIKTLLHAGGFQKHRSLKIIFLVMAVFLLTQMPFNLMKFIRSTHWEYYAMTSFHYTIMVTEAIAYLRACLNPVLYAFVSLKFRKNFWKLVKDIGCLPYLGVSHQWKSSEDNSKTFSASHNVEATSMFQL
For assay [10], the target named is CXCR4 (Homo sapiens, UniProt P61073). Put plainly: Cellular functional assay CXCR4. The conditions noted are these: reference antagonist.
Sequence of CXCR4 (P61073 whole entry): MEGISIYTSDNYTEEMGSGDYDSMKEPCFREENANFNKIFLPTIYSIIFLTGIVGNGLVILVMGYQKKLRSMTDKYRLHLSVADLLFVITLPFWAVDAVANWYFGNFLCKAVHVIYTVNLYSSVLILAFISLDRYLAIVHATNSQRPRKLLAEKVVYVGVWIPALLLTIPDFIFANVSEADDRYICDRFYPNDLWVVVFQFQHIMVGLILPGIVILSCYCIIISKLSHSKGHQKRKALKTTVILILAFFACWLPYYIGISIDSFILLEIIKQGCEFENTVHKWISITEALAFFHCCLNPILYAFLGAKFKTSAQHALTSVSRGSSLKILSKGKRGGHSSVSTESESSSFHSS

As a reminder, the EC50 is the concentration giving half of the maximal effect. Read a high EC50 as lower potency in that assay. As to “CXCL13/BLC/BCA-1: chemokine, reference agonist for CXCR5”, in assay [1], the midpoint of the response, the EC50, lay at 3.8 nM.

For the molecule “I-TAC: chemokine, reference agonist for CXCR3”, the EC50 in [2] stood at 2.3 nM.

For orientation: IC50 means the concentration needed to halve the response being measured. A low value points to greater potency. In assay [3], `COc1cccc(OC)c1OCCNCC1COc2ccccc2O1` (stereo not shown) [WB 4101, reference compound] displayed an IC50 of 0.39 nM.

In turn, “rhIL-8: recombinant chemokine, reference agonist for CXCR1” came in with a half-maximal effective concentration (EC50) in assay [4] of 4.7 nM.

B1: I-309: chemokine, reference agonist for CCR8 (protein, UniProt P22362 24-96, looked up)
C-C motif chemokine 1: KSMQVPFSRCCFSFAEQEIPLRAILCYRNTSSICSNEGLIFKLKRGKEACALDTVGWVQRHRKMLRHCPSKRK
B1 gave an EC50 in [5] of 0.72 nM.

B2: TARC: chemokine, reference agonist for CCR4 (protein, UniProt Q92583 24-94, looked up)
C-C motif chemokine 17: ARGTNVGRECCLEYFKGAIPLRKLKTWYQTSEDCSRDAIVFVTVQGRAICSDPNNKRVKNAVKYLQSLERS
In turn, B2 yielded a concentration for a half-maximal effect (EC50) in [6] of 0.34 nM.

B3: CTACK/CCL27: chemokine, reference agonist for CCR10 (protein, UniProt Q9Y4X3 25-112, looked up)
C-C motif chemokine 27: FLLPPSTACCTQLYRKPLSDKLLRKVIQVELQEADGDCHLQAFVLHLAQRSICIHPQNPSLSQWFEHQERKLHGTLPKLNFGMLRKMG
As to B3, a half-maximal response in [7] (EC50) required 5 nM.

B4: CCL25: chemokine, reference agonist for CCR9 (protein, UniProt O15444 24-150, looked up)
C-C motif chemokine 25: QGVFEDCCLAYHYPIGWAVLRRAWTYRIQEVSGSCNLPAAIFYLPKRHRKVCGNPKSREVQRAMKLLDARNKVFAKLHHNTQTFQAGPHAVKKLSSGNSKLSSSKFSNPISSSKRNVSLLISANSGL
Turning to B4, the EC50 in assay [8] came to 2 nM.

B5: CXCL16: chemokine, reference agonist for CXCR6 (protein, UniProt Q9H2A7 30-254, looked up)
C-X-C motif chemokine 16: NEGSVTGSCYCGKRISSDSPPSVQFMNRLRKHLRAYHRCLYYTRFQLLSWSVCGGNKDPWVQELMSCLDLKECGHAYSGIVAHQKHLLPTSPPISQASEGASSDIHTPAQMLLSTLQSTQRPTLPVGSLSSDKELTRPNETTIHTAGHSLAAGPEAGENQKQPEKNAGPTARTSATVPVLCLLAIIFILTAALSYVLCKRRRGQSPQSSPDLPVHYIPVAPDSNT
The molecule B5 displayed a concentration for a half-maximal effect (EC50) in assay [9] of 1.6 nM.

B6: MIP-II: reference antagonist for CXCR4 (protein)
chain: LGASWHRPDKCCLGYQKRPLPQVLLSSWYPTSQLCSKPGVIFLTKRGRQVCADKSKDWVKKLMQQLPVTAR
In turn, B6 registered a half-maximal inhibitory concentration (IC50) in [10] of 150 nM.
